Experimental data taken from the supplement of paper PMC10724198.

Assays:
Saccharomyces cerevisiae [1] = assay: protein stability index of tFT-peptide fusion in deletion strain of DOA10 (PSI (0-1 scale)); higher = more stable (slower turnover)
Protocol: (§1)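 MPS profiling in S. cerevisiae of two library types built from selected 12-aa C-degron peptides (IN1, IN2, LN1, LN3, VN2, R1-R5, W1-W3, Atg1 and Rpa12 C-termini): saturation mutagenesis libraries and C-terminal +1 capping libraries (13 aa). Each peptide is fused to the C-terminus of a sfGFP-mCherry timer, after a GGGS linker. Cells are FACS-sorted into 8 mCherry/sfGFP bins and sequenced. PSI runs from 0 (unstable) to 1 (stable), measured once in wild type and in the das1Δ or doa10Δ background.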

Saccharomyces cerevisiae [2] = assay: protein stability index of tFT-peptide fusion in wild type (PSI (0-1 scale)); higher = more stable (slower turnover); conditions: genetic background: wild type
Protocol: as §1

Saccharomyces cerevisiae [3] = assay: protein stability index of tFT-peptide fusion in deletion strain of DAS1 (PSI (0-1 scale)); higher = more stable (slower turnover)
Protocol: as §1
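Throughout, for protein stability index of tFT-peptide fusion in deletion strain of DAS1: PSI is a weighted mean of each variant's read distribution over the sorted stability bins, computed only for variants having over 10 reads in total.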
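Throughout, for protein stability index of tFT-peptide fusion in deletion strain of DOA10: PSI per variant is the weighted mean of its sequencing read distribution over the sorted stability bins, counting only variants with over 10 reads summed across bins.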
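Throughout, for protein stability index of tFT-peptide fusion in wild type: PSI derived as read-weighted mean over the 8 sorting bins, only variants exceeding 10 total reads kept, mCherry placed adjacent to the peptide and sfGFP distal.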

Sequence	protein stability index (Saccharomyces cerevisiae [1])	protein stability index (Saccharomyces cerevisiae [2])	protein stability index (Saccharomyces cerevisiae [3])
AETLPMCPLLLR	0.697	0.55	–
AHTLPMCPLLLR	0.664	0.346	–
AIILPMCPLLLR	0.617	0.277	–
AIPLPMCPLLLR	0.653	0.28	–
AITLAMCPLLLR	0.65	0.418	–
AITLKMCPLLLR	0.624	0.296	–
AITLLMCPLLLR	0.629	0.37	–
AITLPLCPLLLR	0.647	0.19	–
AITLPMCGLLLR	0.63	0.243	–
AITLPMCILLLR	0.603	0.091	–
PDKRNYLIKLLN	–	0.119	0.601
PDKRQHLIKLLN	–	0.065	0.562
PDKRWHLIKLLN	–	0.0628	0.633
PDPRNHLIKLLN	–	0.15	0.582
PDWRNHLIKLLN	–	0.144	0.627
PFKRNHLIKLLN	–	0.0943	0.587
PNKRNHLIKLLN	–	0.0744	0.597
PSFAASFWRVVG	–	0.148	0.703
PSLAAPFWRVVG	–	0.182	0.696
PSLAAQFWRVVG	–	0.14	0.696
PSLAASFNRVVG	–	0.643	0.673
PSLAASFWFVVG	–	0.658	0.666
PSLAASFWKVVG	–	0.31	0.674

Sequence	protein stability index (Saccharomyces cerevisiae [1])	protein stability index (Saccharomyces cerevisiae [2])	protein stability index (Saccharomyces cerevisiae [3])
PSLAASFWRIVG	–	0.143	0.675
PSLAASFWRQVG	–	0.146	0.653
PSLAASFWRTVG	–	0.172	0.698
PSLAASFWRVEG	–	0.672	0.687
PSLAASFWRVHG	–	0.193	0.686
PSLAASFWRVVGA	–	0.545	0.681
PSLAASFWRVVH	–	0.448	0.695
PSLAASFWRVVI	–	0.263	0.716
PSLAASFWRWVG	–	0.145	0.706
PSLAASFWSVVG	–	0.694	0.709
PSLAASFWWVVG	–	0.582	0.718
PSLAASYWRVVG	–	0.157	0.672
PSLAFSFWRVVG	–	0.111	0.676
PSLCASFWRVVG	–	0.129	0.68
PSLLASFWRVVG	–	0.145	0.695
PSMAASFWRVVG	–	0.126	0.699
PSQAASFWRVVG	–	0.161	0.695
PSYAASFWRVVG	–	0.131	0.715
RDKRNHLIKLLN	–	0.1	0.612
RKILRQKMNHQN	–	0.162	0.69
RLIKPLPVQFLN	–	0.0432	0.627
RLIQPLIVQFLN	–	0.0468	0.542
RLIQPLMVQFLN	–	0.0988	0.598

Sequence	protein stability index (Saccharomyces cerevisiae [1])	protein stability index (Saccharomyces cerevisiae [2])	protein stability index (Saccharomyces cerevisiae [3])
RLIQPLPEQFLN	–	0.29	0.592
RLIQPLPVDFLN	–	0.716	0.624
RLIQPLPVIFLN	–	0.138	0.548
RLIQPLPVNFLN	–	0.0915	0.579
RLIQPLPVPFLN	–	0.313	0.607
RLIQPLPVQFLG	–	0.35	0.6
RLIQPLPVQFLH	–	0.301	0.582
RLIQPLPVQFLK	–	0.613	0.881
RLIQPLPVQFLM	–	0.13	0.595
RLIQPLPVQFLNA	–	0.545	0.612
RLIQPLPVQFLNY	–	0.433	0.641
RLIQPLPVQKLN	–	0.0688	0.809
RLIQPNPVQFLN	–	0.0748	0.576
RLITPLPVQFLN	–	0.0429	0.605
RMIQPLPVQFLN	–	0.045	0.571
RTSCGYKFRTNN	–	0.188	0.685
SLIQPLPVQFLN	–	0.0779	0.618
TRGAVGGWRLVG	–	0.162	0.68
VPGAVGGWRLVG	–	0.139	0.667
VRGAVGGIRLVG	–	0.589	0.682
VRGAVGGRRLVG	–	0.641	0.675
VRGAVGGWELVG	–	0.551	0.63
VRGAVGGWRLDG	–	0.648	0.691

Sequence	protein stability index (Saccharomyces cerevisiae [1])	protein stability index (Saccharomyces cerevisiae [2])	protein stability index (Saccharomyces cerevisiae [3])
VRGAVGGWRLVA	–	0.151	0.677
VRGAVGGWRLVD	–	0.615	0.684
VRGAVGGWRLVGN	–	0.639	0.67
VRGAVGGWRLVGR	–	0.676	0.674
VRGAVGGWRLVH	–	0.233	0.666
VRGAVGGWRRVG	–	0.163	0.67
VRGAVGGWRSVG	–	0.342	0.664
VRGAVGGWYLVG	–	0.603	0.691
VRGAVGQWRLVG	–	0.147	0.663
VRGAVHGWRLVG	–	0.155	0.679
VRGAVSGWRLVG	–	0.145	0.683
VRGEVGGWRLVG	–	0.119	0.606
VRGFVGGWRLVG	–	0.145	0.691
VRGNVGGWRLVG	–	0.109	0.667
VRGPVGGWRLVG	–	0.181	0.682
VRGVVGGWRLVG	–	0.176	0.679
VRLAVGGWRLVG	–	0.131	0.679
VTGAVGGWRLVG	–	0.141	0.672
VVVYLSCVACIN	–	0.0234	0.0435
YSMRWTFRYWVN	–	0.042	0.495
